Source: patent publication US20020155575
Where “and” joins values, the source holds several entries; their conditions need not be identical. Identical values can stand only once.

T1: trypsin inhibitor type IV-0 (Ovo-inhibitor), Sigma T-1886, P10184
T1 chain: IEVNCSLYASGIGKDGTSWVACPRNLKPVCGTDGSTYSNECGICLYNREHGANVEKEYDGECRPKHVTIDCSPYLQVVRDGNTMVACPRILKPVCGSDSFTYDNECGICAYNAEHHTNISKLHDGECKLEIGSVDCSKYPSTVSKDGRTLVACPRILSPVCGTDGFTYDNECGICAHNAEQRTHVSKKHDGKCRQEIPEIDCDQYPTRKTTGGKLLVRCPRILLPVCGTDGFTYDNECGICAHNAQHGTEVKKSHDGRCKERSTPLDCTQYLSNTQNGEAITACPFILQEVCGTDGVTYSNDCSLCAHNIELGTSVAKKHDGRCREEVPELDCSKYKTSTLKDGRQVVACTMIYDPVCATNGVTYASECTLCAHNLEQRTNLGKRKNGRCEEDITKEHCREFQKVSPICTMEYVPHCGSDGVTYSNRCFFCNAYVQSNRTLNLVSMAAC

T2: trypsin inhibitor type IV-0 (Ovo-inhibitor), Sigma T-1886 (UniProt P10184)
T2 sequence: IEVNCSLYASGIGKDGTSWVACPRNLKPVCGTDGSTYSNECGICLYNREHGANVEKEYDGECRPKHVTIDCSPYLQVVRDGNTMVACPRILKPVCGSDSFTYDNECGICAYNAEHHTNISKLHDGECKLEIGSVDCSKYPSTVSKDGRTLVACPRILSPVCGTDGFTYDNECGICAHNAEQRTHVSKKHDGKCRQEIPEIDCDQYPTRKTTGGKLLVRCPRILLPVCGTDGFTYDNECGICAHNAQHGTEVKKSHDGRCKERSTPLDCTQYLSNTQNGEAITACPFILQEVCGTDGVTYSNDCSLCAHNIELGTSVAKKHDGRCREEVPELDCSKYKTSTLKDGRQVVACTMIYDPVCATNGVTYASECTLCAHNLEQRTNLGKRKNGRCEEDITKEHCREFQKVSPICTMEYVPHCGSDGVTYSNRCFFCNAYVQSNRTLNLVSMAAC


Target: T1, trypsin inhibitor type IV-0 …

| Molecule | Residual Activity (%) |
| --- | --- |
| SAVINASE (subtilisin 309 from B. lentus) (protein) AQSVPWGISRVQAPAAHNRGLTGSGVKVAVLDTGISTHPDLNIRGGASFVPGEPSTQDGNGHGTHVAGTIAALNNSIGVLGVAPSAELYAVKVLGASGSGSVSSIAQGLEWAGNNGMHVANLSLGSPSPSATLEQAVNSATSRGVLVVAASGNSGAGSISYPARYANAMAVGATDQNNNRASFSQYGAGLDIVAPGVNVQSTYPGSTYASLNGTSMATPHVAGAAALVKQKNPSWSNVQIRNHLKNTATSLGSTNLYGSGLVNAEAATR | <5 |

Target: T2, trypsin inhibitor type IV-0 (Ovo-inhibitor), Sigma T-1886

| Molecule | Residual Activity (%) |
| --- | --- |
| subtilisin 309 variant S99SD + S99A + N155NA | 7.4% |
| subtilisin 309 variant S99SD + S99A + S216SDP | 35.0% |
| subtilisin 309 variant L217LP + S99SD + S99A | 97.0% |
| subtilisin 309 variant L42LN | 69.2% |
| subtilisin 309 variant S99D + S101R + S103A + V104I + G160S + A194P + V199M + V205I + *216aD | 24.0% |
| subtilisin 309 variant S99SD + S99A + N155NR | 6.5% |
| subtilisin 309 variant S99SD + S99A + N155ND | 10.7% and 7.1% |
| subtilisin 309 variant S99D + S101R + S103A + V104I + G160S + A194P + V199M + V205I + *216aE | 25.4% |
